In article PMC7502447, “Characterization and functional analysis of two novel thermotolerant α-L-arabinofuranosidases belonging to glycoside hydrolase family 51 from Thielavia terrestris and family 62 from Eupenicillium parvum” (Applied Microbiology and Biotechnology, 2020):

Substrate: O=[N+]([O-])c1ccc(O[C@@H]2O[C@@H](CO)[C@H](O)[C@H]2O)cc1
Experiment: purified protein
Assay type: biochemical, Thermothielavioides terrestris
Details: standard conditions, sodium acetate buffer, optimum pH 5.0, 70 °C

B1: TtABF51A (Thermothielavioides terrestris NRRL 8126) (protein)
chain: AVTLSVAKSGGNATSPYMYGIMFEDISHSGDGGLYAELIQNRAFQNGTLDAWSAVGGATLALDTSTPLSQALPRSVKVTGGQHTAGLKNSGFWGFDVKKSKKYTGSFYSYGEYSGRFTVSLVSNTTSEIFATTTVKSKSVAGRWTQHTFELRPTKDAPDISNSFVLEYKPTPHTELKFNLISLFPPTYKNRANGMRPELMEKLKELNPTYIRCPGGNNVEGNYAGNYWNWSATVGPLKDRPGRPGTWGYYNTDGLGLVEYMHWAEDLGMDVVLAVPAGLYLDGEVVSEADLAPFVQDALNELEFLMGDVSTPYGALRAKLGYPKPWKIKFVEIGNEDNLWGGLDSYKGYRFRMFYDAIKAKYPDIFIFSSTAEYMYKQSGRDYHEYTRPDYFVSQFGMFDNWTAGNPIMIGEFASIQNNTGKLEDTDWNAPKNPWSTWIGSVAEAVFLLGAERNSDRVWGVSFAPLLQNLNSYQWTPDLISFTADPADTTVSVSYPILSLFAKHPLTHTLPATAANGTSFGPAYWVAGRNDAAGTYLLKAAVYNSTGGAEVPFRVGFDGLSRGAPATLTVLTAPGGPFAHNTPANKNAVKTAVTQLRAGEGGVLEFSLPDLSVAVLEAKW
notes: full length 640 aa; predicted 20-aa signal peptide removed; C-terminal 6xHis; predicted N-terminal CBM4_9 kept; expressed in Trichoderma reesei D-86271
B1 showed a Km of 300 ± 20 µM, a Vmax of 108 µmol/min/mg and a kcat of 123 ± 2.91 s⁻¹.
